In assay [1] the target is T1, 630 SLP (surface layer protein of C. difficile strain 630, HMW and LMW subunits) (Clostridioides difficile 630 (ribotype …, UniProt Q183M8, strain)).
T1 construct: low-molecular-weight (LMW) subunit of the surface layer protein, cut from the precursor SlpA by Cwp84, C. difficile strain 630 (ribotype 012); predicted mass 34.2 kDa; high-molecular-weight (HMW) subunit of the surface layer protein, cut from the precursor SlpA by Cwp84, C. difficile strain 630 (ribotype 012); predicted mass 39.5 kDa; Both subunits come from one precursor, SlpA; source: purified …
The experiment in a line: ELISA; monoclonal phage ELISA: phage-displayed VHHs on immobilized SLPs. To be noted: one partner purified. In general terms: In an ELISA, binding on a coated surface is turned into a signal by an enzyme label.

The target of assay [2] is T2, SLP on cells of C. difficile strain 196 (ribotype 027) (Clostridioides difficile 196 (ribotype …, UniProt A0A9R0BMB3, strain)).
T2 construct: LMW subunit of the surface layer protein (from the precursor SlpA), C. difficile strain 196, ribotype 027; HMW subunit of the surface layer protein (from the precursor SlpA), C. difficile strain 196, ribotype 027; Whole cells were the antigen; source: endogenous, on formalin-fixed C. difficile 196 cells
The experiment in a line: ELISA; whole cell ELISA: formalin-fixed C. difficile cells coated on MaxiSorp plates, His6-tagged VHH at 10 μg/ml in PBS-T, 37 °C, 1 h, detected with anti-His6-HRP. To be noted: one partner purified.

Assay [3] addresses T3, SLP on cells of C. difficile strain BI-7 (ribotype 027) (Clostridioides difficile BI-7 (ribotype …, UniProt A0A9R0BMB3, strain)).
T3 construct: LMW subunit of the surface layer protein (from the precursor SlpA), C. difficile strain BI-7, ribotype 027; HMW subunit of the surface layer protein (from the precursor SlpA), C. difficile strain BI-7, ribotype 027; Whole cells were the antigen; source: endogenous, on formalin-fixed C. difficile BI-7 cells
Described as above. To be noted: one partner purified.

In assay [4] the target is T4, SLP on cells of C. difficile strain BI-1 (ribotype 027) (Clostridioides difficile BI-1 (ribotype …, UniProt A0A9R0BMB3, strain)).
T4 construct: LMW subunit of the surface layer protein (from the precursor SlpA), C. difficile strain BI-1, ribotype 027; HMW subunit of the surface layer protein (from the precursor SlpA), C. difficile strain BI-1, ribotype 027; Whole cells were the antigen; source: endogenous, on formalin-fixed C. difficile BI-1 cells
The assay is described as above. Particulars: one partner purified.

Assay [5] has as its target T5, SLP on cells of C. difficile strain R20291 (ribotype 027) (Clostridioides difficile R20291 …, UniProt A0A9R0BMB3, strain).
T5 construct: LMW subunit of the surface layer protein (from the precursor SlpA), C. difficile strain R20291, ribotype 027; HMW subunit of the surface layer protein (from the precursor SlpA), C. difficile strain R20291, ribotype 027; Whole cells were the antigen; source: endogenous, on formalin-fixed C. difficile R20291 cells
Described as above. Particulars: one partner purified.

In assay [6] the target is T1, 630 SLP (surface layer protein of C. …). As to the kind of experiment: SPR; Biacore 3000; 630 SLP immobilised on a CM5 chip, VHHs injected at various concentrations; data not shown. To be noted: both partners purified. Background: Surface plasmon resonance follows binding to a sensor surface in real time, without labels.
The target of assay [7] is T6, QCD-32g58 LMW SLP (low-molecular-weight subunit of the QCD-32g58 surface layer protein) (Clostridioides difficile QCD-32g58 …, UniProt A0A9R0BMB3, strain).
T6 construct: low-molecular-weight (LMW) subunit of the surface layer protein, cut from the precursor SlpA by Cwp84, C. difficile strain QCD-32g58 (ribotype 027); predicted mass 33.9 kDa; also called QCD-32g58 SLP LMW subunit; LMW subunit; source: purified from C. difficile QCD-32g58 (low-pH glycine extraction, minor SEC peak at about 15 ml); in the Western blot the LMW band of the extracted SLPs
The experiment in a line: SPR; Biacore 3000; SEC-purified QCD-32g58 LMW SLP subunit amine-coupled to a CM5 chip; single-concentration screen, 200 nM VHH; 25 °C, 10 mM HEPES pH 7.4, 150 mM NaCl, 3 mM EDTA, 0.005 % P20. To be noted: both partners purified.

Assay [8] addresses T7, QCD-32g58 SLP (surface layer protein of C. difficile strain QCD-32g58, HMW and LMW subunits) (Clostridioides difficile QCD-32g58 …, UniProt A0A9R0BMB3, strain).
T7 construct: low-molecular-weight (LMW) subunit of the surface layer protein, cut from the precursor SlpA by Cwp84, C. difficile strain QCD-32g58 (ribotype 027); predicted mass 33.9 kDa; high-molecular-weight (HMW) subunit of the surface layer protein, cut from the precursor SlpA by Cwp84, C. difficile strain QCD-32g58 (ribotype 027); predicted mass 44.2 kDa; Both subunits come from one precursor, SlpA; also …
The experiment in a line: SPR; Biacore 3000; SEC-purified QCD-32g58 SLP amine-coupled to a CM5 chip, VHH monomer fractions injected at various concentrations; 25 °C, 10 mM HEPES pH 7.4, 150 mM NaCl, 3 mM EDTA, 0.005 % P20; KD by steady-state analysis. Particulars: both partners purified.

Assay [9] has as its target 630 SLP (surface layer protein of C. difficile strain 630, HMW and LMW subunits) (Clostridium difficile strain 630). The experiment in a line: SPR; Biacore 3000; 630 SLP immobilised on a CM5 chip, VHHs injected at various concentrations; data not shown.
Assay [10] addresses QCD-32g58 LMW SLP (low-molecular-weight subunit of the QCD-32g58 surface layer protein) (Clostridium difficile strain QCD-32g58). As to the kind of experiment: SPR; Biacore 3000; SEC-purified QCD-32g58 LMW SLP subunit amine-coupled to a CM5 chip; single-concentration screen, 200 nM VHH; 25 °C, 10 mM HEPES pH 7.4, 150 mM NaCl, 3 mM EDTA, 0.005 % P20.

Eight molecules from PMC4768215, “Targeting surface-layer proteins with single-domain antibodies: a potential therapeutic approach against Clostridium difficile-associated disease” (Applied Microbiology and Biotechnology, 2015) can be followed below.

A word on the Kd: it is the free concentration of one partner at which half of the binding sites on the other are occupied at equilibrium, for simple one-to-one binding. A higher Kd goes with a looser complex. Usually koff stands for a measure of how fast the partners let go of each other. The kon is the second-order rate constant of association.

B1: SLP_VHH46 displayed on phage (VHH)
VHH: QVKLEESGGGLVQAGGSLRLSCADSERTFRIYTMAWFRQAPGKERDFVAAISWSGGSTYYADSVKGRFTISRDNAKNTVYLPMNSLKPDDTAVYYCASGGVLSTGSQSDSEYDFWGQGTQVTVSS
notes: as the VHH of m7
Consider B1, for which the binding result in [1] is recorded as “no binding”.

B2: SLP_VHH22 (VHH)
VHH: QVQLVESGGGLVQPGGSLRLSCAASGFTLDSYAIGWFRQAPGKEHEGISCISSNGGSTYYTDSVKGRFTISRDNAKNTVYLQMNSLESEDSAVYYCATVRRCSSLDMALGALATRTKGYDYWGQGTQVTVSS
notes: From an immune llama phage display library panned on QCD-32g58 SLP; source: monomeric SEC fractions for SPR; not shown: His6, C-terminal, kept
With B2, the binding result in assay [2] is reported as “binds”; in [3], “binds”; in assay [4], “binds”; in [5] it was “binds”; in [6], “no binding”. Also, the Kd in assay [7] stood at 0.008 µM; in [8], 0.18 µM. The koff in assay [7] is 0.0011 s⁻¹. In assay [7], the kon came to 130000 M⁻¹ s⁻¹.

B3: SLP_VHH49 (VHH)
VHH: QVKLEESGGGLVQAGGSLRLSCAASEGAFSDALSRHAAGWFRQAPGKEREFVAAISWNGANTDYKNSVNNRFTISRDTSKNTVYLQMNSLKPEDTAVYYCAAKNEPSWISRIYYRGLEYDYWGQGTQVTVSS
notes: as for B2
In the case of B3, the binding result was “binds” in assay [2]; “binds” in assay [3]; “binds” in assay [4]; “binds” in assay [5]; “no binding” in assay [6]. Further, the Kd is 0.02 µM in assay [7] and 0.048 µM in assay [8]. Further, the koff in assay [7] was 0.012 s⁻¹. The kon in assay [7] worked out at 590000 M⁻¹ s⁻¹.

B4: SLP_VHH49 displayed on phage (VHH)
VHH: QVKLEESGGGLVQAGGSLRLSCAASEGAFSDALSRHAAGWFRQAPGKEREFVAAISWNGANTDYKNSVNNRFTISRDTSKNTVYLQMNSLKPEDTAVYYCAAKNEPSWISRIYYRGLEYDYWGQGTQVTVSS
notes: as the VHH of m8
Consider B4, for which, in assay [1], the binding result is “no binding”.

B5: SLP_VHH26 (VHH)
VHH: QVKLEESGGGLVQAGGSLRLSCAASGRTFTNYAMAWFRQASGKEREFVAIISQSGGRTYYGDSVKGRFTISRDNAKNTVYLQLNSLQPEDTGVYYCAAGDSPYYYSRSRYDLWGPGTQVTVSS
notes: as for B2
As to B5, the dissociation constant (Kd) in assay [9] came out at 2 µM; in [10] it was 0.46 µM; in assay [8], 0.58 µM. The binding result in [2], in assay [3], in assay [4] and in assay [5] was “binds” each time. In addition, in assay [10], the koff was found to be 0.097 s⁻¹. Moreover, the kon in assay [10] was found to be 210000 M⁻¹ s⁻¹.

B6: SLP_VHH2 (VHH)
VHH: QVKLEESGGGLVQPGGSLRLSCAASGGTFTNYAMAWFRQTPGNDREFVGIISQKGGRTYYADSVKGRFSVSRDNAKNTAYLQMNSLKPEDTAVYYCAAGDSSYYYTRSRYDIWGQGTQVTVSS
notes: as for B2
Consider B6, for which the binding result in assay [2], in assay [3], in assay [4] and in assay [5] was “binds” each time. Also, the values for the Kd in assay [6], in assay [7] and in [8] were 1 µM, 0.09 µM and 0.23 µM, respectively. Further, the koff in assay [7] is 0.013 s⁻¹. Also, in assay [7], the kon turned out to be 150000 M⁻¹ s⁻¹.

B7: SLP_VHH50 (VHH)
VHH: QVKLEESGGGLVQPGGSLRLSCAASGFTLDYYTIGWFRQAPGKEREGVACISSDDRTYYVDSVKGRFAISRDNVKNTVYLQMNNLKPEDTAVYYCASKESVFLIATMKGCAPGHDDYWGQGTQVTVSS
notes: as for B2
On to B7, for which the binding result in assay [2] is reported as “binds”; in [3], “binds”; in assay [4], “binds”; in [5], “binds”; in [6] it was “no binding”. In addition, the Kd in assay [7] is 0.014 µM; in assay [8], 0.075 µM. In assay [7], the koff is 0.0027 s⁻¹. This molecule yielded a kon in [7] of 190000 M⁻¹ s⁻¹.

B8: SLP_VHH50 displayed on phage (VHH)
VHH: QVKLEESGGGLVQPGGSLRLSCAASGFTLDYYTIGWFRQAPGKEREGVACISSDDRTYYVDSVKGRFAISRDNVKNTVYLQMNNLKPEDTAVYYCASKESVFLIATMKGCAPGHDDYWGQGTQVTVSS
notes: as the VHH of m9
For B8, the binding result in assay [1] was “no binding”.
